Earlier results, collected in paper PMC9157009, “Protein proximity networks and functional evaluation of the casein kinase 1 gamma family reveal unique roles for CK1γ3 in WNT signaling” (The Journal of Biological Chemistry, 2022).

Tested on: β-catenin-dependent transcription
Details: siRNA screen, BAR firefly luciferase reporter, ref Biechele et al

B1: MAGI1 (protein, UniProt Q96QZ7 1-1491, looked up)
Membrane-associated guanylate …: MSKVIQKKNHWTSRVHECTVKRGPQGELGVTVLGGAEHGEFPYVGAVAAVEAAGLPGGGEGPRLGEGELLLEVQGVRVSGLPRYDVLGVIDSCKEAVTFKAVRQGGRLNKDLRHFLNQRFQKGSPDHELQQTIRDNLYRHAVPCTTRSPREGEVPGVDYNFLTVKEFLDLEQSGTLLEVGTYEGNYYGTPKPPSQPVSGKVITTDALHSLQSGSKQSTPKRTKSYNDMQNAGIVHAENEEEDDVPEMNSSFTADSGEQEEHTLQETALPPVNSSIIAAPITDPSQKFPQYLPLSAEDNLGPLPENWEMAYTENGEVYFIDHNTKTTSWLDPRCLNKQQKPLEECEDDEGVHTEELDSELELPAGWEKIEDPVYGIYYVDHINRKTQYENPVLEAKRKKQLEQQQQQQQQQQQQQQQQQQQQTEEWTEDHSALVPPVIPNHPPSNPEPAREVPLQGKPFFTRNPSELKGKFIHTKLRKSSRGFGFTVVGGDEPDEFLQIKSLVLDGPAALDGKMETGDVIVSVNDTCVLGHTHAQVVKIFQSIPIGASVDLELCRGYPLPFDPDDPNTSLVTSVAILDKEPIIVNGQETYDSPASHSSKTGKVNGMKDARPSSPADVASNSSHGYPNDTVSLASSIATQPELITVHIVKGPMGFGFTIADSPGGGGQRVKQIVDSPRCRGLKEGDLIVEVNKKNVQALTHNQVVDMLVECPKGSEVTLLVQRGGLPVPKKSPKSQPLERKDSQNSSQHSVSSHRSLHTASPSHSTQVLPEFPPAEAQAPDQTDSSGQKKPDPFKIWAQSRSMYENRPMSPSPASGLSKGEREREINSTNFGECPIPDYQEQDIFLWRKETGFGFRILGGNEPGEPIYIGHIVPLGAADTDGRLRSGDELICVDGTPVIGKSHQLVVQLMQQAAKQGHVNLTVRRKVVFAVPKTENEVPSPASSHHSSNQPASLTEEKRTPQGSQNSLNTVSSGSGSTSGIGSGGGGGSGVVSTVVQPYDVEIRRGENEGFGFVIVSSVSRPEAGTTFAGNACVAMPHKIGRIIEGSPADRCGKLKVGDRILAVNGCSITNKSHSDIVNLIKEAGNTVTLRIIPGDESSNATLLTNAEKIATITTTHTPSQQGTQETRNTTKPKQESQFEFKAPQATQEQDFYTVELERGAKGFGFSLRGGREYNMDLYVLRLAEDGPAERCGKMRIGDEILEINGETTKNMKHSRAIELIKNGGRRVRLFLKRGDGSVPEYDPSSDRHGPATGPQGVPEVRAGPDRRQHPSLESSYPPDLHKSSPHGEKRAHARDPKGSREYSRQPNEHHTWNGTSRKPDSGACRPKDRAPEGRRDAQAERAAAANGPKRRSPEKRREGTRSADNTLERREKHEKRRDVSPERRRERSPTRRRDGSPSRRRRSLERLLEQRRSPERRRGGSPERRAKSTDRRRARSPERRRERSLDKRNREDRASHREREEANLKQDAGRSSRHPPEQRRRPYKECSTDLSI
Question: For B1, which “Fold over control siRNA” value (fold over control siRNA) is on record?
Answer: 3.957

Question: And the “Average BAR firefly Luciferase (Raw)” value (raw signal per siRNA target)?
Answer: 104670
